In assay [1] the target is T1, His-HT1 (high leaf temperature 1, Raf-like protein kinase), wild type (Arabidopsis thaliana, UniProt Q2MHE4 1-390).
T1 construct: HT1 protein kinase of Arabidopsis thaliana; UniProt Q2MHE4 is printed as the 'long form of HT1' used for the AlphaFold2 model; Expressed from pET30a(+); source: E. coli, purified (Ni resin beads); not shown: His tag, N-terminal, kept
T1 sequence (looked up): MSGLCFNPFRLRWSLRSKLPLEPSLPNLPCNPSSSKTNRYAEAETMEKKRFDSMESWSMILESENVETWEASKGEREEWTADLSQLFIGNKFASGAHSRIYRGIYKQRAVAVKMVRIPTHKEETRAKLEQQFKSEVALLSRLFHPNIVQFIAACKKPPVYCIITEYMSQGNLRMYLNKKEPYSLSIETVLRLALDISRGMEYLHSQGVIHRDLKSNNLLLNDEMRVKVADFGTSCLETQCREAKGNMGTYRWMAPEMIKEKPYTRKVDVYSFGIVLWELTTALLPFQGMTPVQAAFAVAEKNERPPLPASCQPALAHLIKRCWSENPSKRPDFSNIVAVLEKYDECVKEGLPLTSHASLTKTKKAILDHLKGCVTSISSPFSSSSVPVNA
As to the kind of experiment: pull-down; GST-MPK on glutathione Sepharose 4B beads, His-HT1 as prey; 5 ug of each protein in 200 ul of 50 mM tris-HCl pH 7.5, 150 mM NaCl, 0.1% Triton X-100, 1 mM DTT; 20 mM NaHCO3 or 20 mM NaCl (control) in all buffers including washes; room temperature; immunoblot with anti-GST and anti-His. As to conditions: both partners purified. In general terms: In western blotting, separated proteins are transferred to a membrane and probed.

The next assay has as its target T2, His-HT1-R173Q (Arabidopsis thaliana, UniProt Q2MHE4 1-390, R173Q).
T2 construct: HT1 protein kinase of Arabidopsis thaliana with R173Q (dominant allele from an EMS screen); As m1 with the point mutation; source: E. coli, purified (Ni resin beads); not shown: His tag, N-terminal, kept
T2 sequence (looked up): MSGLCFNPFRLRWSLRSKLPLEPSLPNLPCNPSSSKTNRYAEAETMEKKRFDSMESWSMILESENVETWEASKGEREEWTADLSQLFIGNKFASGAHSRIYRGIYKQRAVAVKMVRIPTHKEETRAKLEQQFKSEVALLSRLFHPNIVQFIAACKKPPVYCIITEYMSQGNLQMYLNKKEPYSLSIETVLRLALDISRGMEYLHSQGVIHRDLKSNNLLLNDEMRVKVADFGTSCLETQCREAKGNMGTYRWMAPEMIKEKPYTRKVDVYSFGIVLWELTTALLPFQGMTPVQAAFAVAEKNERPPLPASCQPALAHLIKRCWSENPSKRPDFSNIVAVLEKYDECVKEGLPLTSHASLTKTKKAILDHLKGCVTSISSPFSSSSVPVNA
The assay is described as above. The conditions noted are these: both partners purified.

B1: GST-MPK4 (mitogen-activated protein kinase 4) (enzyme, Arabidopsis thaliana, UniProt Q39024 1-376, looked up)
chain: MSAESCFGSSGDQSSSKGVATHGGSYVQYNVYGNLFEVSRKYVPPLRPIGRGAYGIVCAATNSETGEEVAIKKIGNAFDNIIDAKRTLREIKLLKHMDHENVIAVKDIIKPPQRENFNDVYIVYELMDTDLHQIIRSNQPLTDDHCRFFLYQLLRGLKYVHSANVLHRDLKPSNLLLNANCDLKLGDFGLARTKSETDFMTEYVVTRWYRAPELLLNCSEYTAAIDIWSVGCILGETMTREPLFPGKDYVHQLRLITELIGSPDDSSLGFLRSDNARRYVRQLPQYPRQNFAARFPNMSAGAVDLLEKMLVFDPSRRITVDEALCHPYLAPLHDINEEPVCVRPFNFDFEQPTLTEENIKELIYRETVKFNPQDSV
notes: MPK4, MAP kinase of Arabidopsis thaliana; UniProt Q39024 printed for the model; Expressed from pGEX-6P-1; source: E. coli, purified (glutathione Sepharose beads); not shown: GST, N-terminal, kept
As for B1, the binding result (in assay [1]; in the assay with His-HT1-R173Q) was “binds” in each case.

B2: GST-MPK12 (mitogen-activated protein kinase 12) (enzyme, Arabidopsis thaliana, UniProt Q8GYQ5 1-372, looked up)
chain: MSGESSSGSTEHCIKVVPTHGGRYVQYNVYGQLFEVSRKYVPPIRPIGRGACGIVCAAVNSVTGEKVAIKKIGNAFDNIIDAKRTLREIKLLRHMDHENVITIKDIVRPPQRDIFNDVYIVYELMDTDLQRILRSNQTLTSDQCRFLVYQLLRGLKYVHSANILHRDLRPSNVLLNSKNELKIGDFGLARTTSDTDFMTEYVVTRWYRAPELLLNCSEYTAAIDIWSVGCILGEIMTGQPLFPGKDYVHQLRLITELVGSPDNSSLGFLRSDNARRYVRQLPRYPKQQFAARFPKMPTTAIDLLERMLVFDPNRRISVDEALGHAYLSPHHDVAKEPVCSTPFSFDFEHPSCTEEHIKELIYKESVKFNPDH
notes: MPK12, MAP kinase of Arabidopsis thaliana; UniProt Q8GYQ5 printed for the model; Expressed from pGEX-6P-1; source: E. coli, purified (glutathione Sepharose beads); not shown: GST, N-terminal, kept
With B2, the binding result in assay [1] was “binds”.

(Values after publication PMC9728965, “Stomatal CO2/bicarbonate sensor consists of two interacting protein kinases, Raf-like HT1 and non-kinase-activity requiring MPK12/MPK4” (Science Advances, 2022).)
